Reference: PMC4336609

Biological target: 14-3-3β (UniProt P31946)
Assay: GST-14-3-3β pull-down from cell lysate
Conditions: reference: wild type; sites T181

binding against the reference: lost
Substance: XLF (from UniProt Q9H9Q4) T181A
